Experiment: Enzyme activity of plant thioredoxin-porphobilinogen synthase: PBG formation from ALA (EC 4.2.1.24)
Format: biochemical
Details: 37° C., 1 hour, Tricine buffer pH 7.9, 2.5 mM ALA, 5 mM MgCl2, 1.25 μg purified recombinant protein; Ehrlich's reagent, OD 555 nm
Description: Enzyme activity is tested in accordance with EC 4.2.1.24 using the following assay principle: [drawing 1] The enzyme activity of plant thioredoxin-porphobilinogen synthase (T-PPS) is measured as porphobilinogen (PBG) formation from δ-aminolevulinic acid (Aminolevulinate or ALA). A typical reaction is as follows: the reaction is carried out at 37° C. for 1 hour in Tricine buffer pH 7.9 or other suitable biochemical buffer, 2.5 mM ALA, 5 mM MgCl2 and 1.25 μg of purified recombinant protein from E. coli expression system in a final assay volume of 100 μl. PBG is quantified spectrophotometrically after reaction with the 100 μl Ehrlich's reagent solution. Optical density is determined after 60 minutes at 555 nm.

## plant thioredoxin-porphobilinogen synthase: fusion protein of thioredoxin and tomato plant porphobilinogen synthase, expressed in E. coli (SEQ ID NO: 2)
  enzyme activity (conversion of ALA to PBG): active
